Measured values taken from patent US6613878B1, “PCNA binding substance” (Cyclacel Limited, priority 1995, dated 2003).
Ends that are not written are not given here.

What was measured:
PCNA [1] = biological target: T1, PCNA (Homo sapiens, UniProt P12004); experiment: Peptide precipitation of PCNA from HeLa cell lysate, PC10 Western blot; format: binding; design: HeLa cell lysate was added to the washed beads to a final protein concentration of 1 mg/ml; endogenous in cells; host or cells: HeLa; conditions: 2.7 μg peptide on beads; HeLa lysate 1 mg/ml; PC10 immunoblot
T1 sequence (P12004 whole entry): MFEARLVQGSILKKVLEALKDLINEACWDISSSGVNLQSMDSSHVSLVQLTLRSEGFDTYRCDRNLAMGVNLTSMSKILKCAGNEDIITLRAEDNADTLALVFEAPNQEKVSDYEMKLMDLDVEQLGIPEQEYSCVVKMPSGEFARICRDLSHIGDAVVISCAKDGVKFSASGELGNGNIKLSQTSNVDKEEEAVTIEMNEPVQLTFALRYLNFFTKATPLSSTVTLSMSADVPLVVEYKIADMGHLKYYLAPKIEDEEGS
Method: Twenty amino acid peptides with 15 amino acid overlaps were synthesized (Chiron Mimotopes, Australia) across the 89 amino acids from the C-terminal region of Fen1 identified in the two hybrid screen as the PCNA binding site on Fen1. These peptides were linked via residues SGSG (SEQ ID NO:3) at the amino acid terminus to biotin. 2.7 μg of each peptide was incubated with 10 μl streptavidin agarose beads (Sigma) in phosphate buffered saline (PBS) for 1 hour at room temperature (r.t.) then beads were washed extensively in PBS and recovered each time by centrifugation at 11,600 g. HeLa cell lysate was added to the washed beads to a final protein concentration of 1 mg/ml and incubated with the beads on ice for 1 hour. Beads were extensively washed in PBS with 220 mM NaCl, then bound proteins removed by boiling for 8 minutes in SDS loading buffer with 0.2 M DTT. Proteins were separated on 10% SDS-PAGE then electrophoretically transferred to nitrocellulose. Blots were blocked then incubated for 1 hour r.t. with PC 10 hybridoma supernatant (Waseem & Lane, 1990) diluted 1:5 in DMEM with 10% FCS. After washing, secondary HRP-conjugated anti-mouse IgG serum at 1:1000 in 2% non-fat milk-PBS-0.2% Tween was added for 1 hour at r.t. Bound antibody was visualised using the ECL system according to the manufacturer's instructions (Amersham plc.)
To map precisely the residues of Fen1 to which PCNA binds, a series of biotinylated 20 amino acids peptides (with 15 amino acid overlaps) were synthesized representing the region of Fen1 found to interact with PCNA in the two hybrid screen (FIG. 1). Fen1 peptides (bound to streptavidin agarose beads) were incubated with human HeLa cell extracts, then beads were precipitated and bound protein analysed on immunoblots probed with monoclonal anti-PCNA antibody PC10 (Waseen & Lane, 1990).
The region of human Fen1 recognised by PCNA in the precipitation assay contains a motif highly conserved in the Fen1 family. We examined whether human PCNA could bind to his motif in the yeast homologues of Fen1, S. pombe rad2 and […]/YKL510. […]

PCNA [2] = biological target: T1, PCNA; experiment: Competitive ELISA: PCNA binding to immobilised FenPBP (peptide 84); design: made in house; used as unpurified lysate; conditions: non-biotinylated 9-mer, FIG. 4
Method: Biotinylated FenPBP (peptide 84 (SEQ ID NO:4)—see FIG. 2) was immobilised on ELISA dishes pre-coated with streptavidin. Bacterial cell lysate overexpressing recombinant human PCNA was mixed with increasing amounts of a non-biotinylated 9 amino acid peptide QTSMTDFYH (SEQ ID NO:2) derived from p21PBP (Warbrick et al., 1995), then binding of PCNA to the immobilised FenPBP was measured using polyclonal antibody 3009 against PCNA, followed by HRP-anti-rabbit antibody,and calorimetric detection at 450 nm.
ELISA plates were coated overnight at 37° C. with 100 ng of streptavidin per well. Plates were blocked with 5% non-fat milk powder in PBS, washed extensively with PBS containing 0.2% Tween 20 (PBS-T) then 100 μl FenPBP—peptide 84 (SEQ ID NO:4) (see FIG. 2)—at 10 μg/ml was added to each well. Following 1 hour incubation at r.t. in a humid chamber, wells were washed extensively. Approximately 3.5 μg total protein containing overexpressed recombinant human PCNA was mixed with varying concentrations of a 9 amino acid peptide derived from p21PBP (Warbrick et al, 1995), of the sequence QTSMTDFYH (SEQ ID NO:2) (purified by HPLC and verified by mass spectrometry) and applied to the wells for 1 hour at r.t. After extensive washing, anti-PCNA polyclonal antibody 3009 (Cox et al., manuscript in preparation) was added at 1:1000, followed by HRP-conjugated anti-rabbit IgG serum at 1:1000, and bound antibody was visualized by the TMB colormetric procedure (Harlow & Lane, 1998). Plated were read at 450 nm using a Dynatech 5000 plate reader.
Since the region of PCNA bound by Fen1 is the same as that recognised by p21^Cip1, and the motif of Fen1 required for PCNA interaction appears homologous to the critical residues of p21PBP (Warbrick et al., 1995), it is highly possible that Fen1 and p21^Cip1 might compete for binding to PCNA. We therefore tested this hypothesis using PCNA-interacting peptide 84 (SEQ ID NO:4) of Fen1 (dubbed Fen1PBP for Fen1-PCNA binding peptide) immobilised in ELISA wells. […]

Row | Substance | PCNA precipitated from HeLa cell extract by biotinylated peptide on streptavidin agarose beads (PCNA [1]) | Concentration of added peptide giving total displacement of PCNA from immobilised Fen1PBP (PCNA [2]; immobilised Fen1PBP) | Concentration of peptide that completely prevented PCNA binding to Fen1PBP (approximate molar) (PCNA [2]; immobilised biotinylated FenPBP) | Concentration of peptide that completely prevented PCNA binding to Fen1PBP (PCNA [2]; immobilised biotinylated FenPBP, antibody 3009, read at 450 nm)
1 | 85: Biotinylated 20 amino acid peptide of the human Fen1 C-terminal region containing TQGRLDDFFK (SGSGSRQGSTQGRLDDFFKVTGSL; also: biotinylated) [compound 85] | equal efficiency |  |  | 
2 | 86: Biotinylated 20 amino acid peptide of the human Fen1 C-terminal region containing TQGRLDDFFK (SGSGTQGRLDDFFKVTGSLSSAKR; also: biotinylated) [compound 86] | equal efficiency |  |  | 
3 | QTSMTDFYH [Non-biotinylated 9 amino acid peptide derived from p21PBP (Warbrick et al., 1995)] |  | 1 mM | approximately 1 μM | 1 µg/mL
4 | peptide 84: Biotinylated (SGSG-linked) 20 amino acid peptide of the human Fen1 C-terminal region containing TQGRLDDFFK; Fen1-PCNA binding peptide (SGSGKRLSKSRQGSTQGRLDDFFK; also: biotinylated, site not given here) | equal efficiency |  |  | 
